Consider 2 substances from patent publication US20230064978A1, “CYCLIC PEPTIDE RECEPTOR LANTHIONINE SYNTHETASE C-LIKE PROTEIN (LANCL) AND USES THEREOF” (LATERAL IP PTY LTD, priority 2019, published 2023).

Bridges are numbered along the chain shown (N, C = ends). Where no end group is shown, it is not given here.

Test [1] relates to DRG neurons. As to the kind of experiment: Confocal microscopy of PAL probe binding in DRG cell cultures, spinal nerve ligation model. Type of test: cell-based, Sprague Dawley rats. The source says: LAT9991-PAL was used in conjunction with confocal microscopy to visualise the location of potential target(s), noting that analgesic agents can have activity at several sites, either on central or peripheral neurons, or on glial or inflammatory cells that are in proximity to neurons. To identify the cell types to which LAT9991-PAL binds, 3-day cell cultures of DRG from neuropathic or control sites were taken from animals with neuropathy due to spinal nerve ligation. Briefly, L5 and L6 spinal nerves of male Sprague Dawley rats were ligated to create a robust and long-lasting mechanical allodynia of the injured hind paw. Presence of neuropathic pain was confirmed 2 weeks post-spinal nerve ligation surgeries (day 14) using von Frey (VF) filaments (up-and-down method) applied on ipsilateral (injured) and contralateral (non-injured) paw). Live DRG cells were dissected out as described previously and incubated with LAT9991-PAL for 1 hour prior to UV irradiation to fix the binding in situ. […] As a specificity control, the binding of LAT9991-PAL to the neuropathic DRG was blocked in the presence of an excess amount of unlabeled LAT9991 peptide.

In test [2] the target is LANCL1 (Rattus norvegicus, UniProt Q9QX69). As to the kind of experiment: Streptavidin pull-down of probe-labelled proteins from spinal cord microsomal fraction, anti-LANCL1 Western Blot. In kind it is binding. Set-up: from tissue; host or cells: rat spinal cord, microsomal fraction. The protocol:
To confirm the LANCL1 enrichment observed by mass spectrometry sequencing pull-down experiments, commercial antibodies to LANCL1 (polyclonal rabbit anti-LANCL1, PA557107 from Invitrogen) were used to identify the presence of the LANCL1 in nerve microsome preparations. Briefly, rat spinal cord were lysed in lysate buffer, (sodium phosphate buffer 5 mM pH7.4, sucrose 0.32M+protease inhibitors (cOmplete ULTRA tablets from Roche, mini easy pack, 05892970001)). All the following steps were done on ice. The samples were homogenized, and the total extract centrifuged at 10000 g during 20 minutes. The supernatant was kept and the lysis step was repeated on the pellet adding 10 ml more of lysis buffer, followed by a new centrifugation step. This step extraction was done two times as described and the supernatants were pooled before centrifugation at 105000 g using the Ti50.2 Beckman rotor for 90 minutes at 4° C. The pellet was kept as a microsomal fraction and stored at −80° C. […] Images acquired with the ChemiDoc™ MP Imaging System were analyzed with Imagelab software (Bio-Rad).
(A western blot detects proteins with antibodies after separation by electrophoresis.)

In test [3] the target is T1, human recombinant LANCL2 (Homo sapiens, UniProt Q9NS86).
T1 construct: human recombinant LANCL2 (amino acid residues 1-450); GST (N); purchased ABCAM ab163277; host or cells: wheat germ
T1 sequence (Q9NS86 1-450): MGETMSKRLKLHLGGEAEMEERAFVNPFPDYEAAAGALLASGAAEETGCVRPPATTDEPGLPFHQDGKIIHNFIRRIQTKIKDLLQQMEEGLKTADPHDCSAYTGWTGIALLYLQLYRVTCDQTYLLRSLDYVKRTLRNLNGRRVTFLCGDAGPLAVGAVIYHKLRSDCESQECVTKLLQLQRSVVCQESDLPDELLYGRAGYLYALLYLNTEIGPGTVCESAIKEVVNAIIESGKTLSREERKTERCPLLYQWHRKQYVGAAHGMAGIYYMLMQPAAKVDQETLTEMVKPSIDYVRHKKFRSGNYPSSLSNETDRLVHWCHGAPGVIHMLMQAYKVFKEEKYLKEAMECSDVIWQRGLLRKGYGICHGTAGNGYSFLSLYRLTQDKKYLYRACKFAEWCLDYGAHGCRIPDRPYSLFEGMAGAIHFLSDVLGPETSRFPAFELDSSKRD
Description: In-gel fluorescence: photolabelling of recombinant LANCL2 with PAL probe, with or without excess LAT8881. Type of test: binding. The procedure: An in-gel fluorescence protocol was followed to determine whether the cyclic peptides bound to LANCL2 and LANCL3. Briefly:
1. LANCL2 and LANCL3 Labelling, Assay on 96 Well Plate, Volume of the Reaction 40 μl in PBS
• 1 μg/well of human recombinant LANCL2 (amino acid residues 1-450; ABCAM catalog no. ab163277, ˜0.07 mg/ml; expressed in wheat germ and incorporating an N-terminal GST tag; UniProt Accession no: Q9NS86);
• Vehicle DMSO • ±LAT8881 (a cyclic peptide fragment of human growth hormone; SEQ ID NO:1) • SEQ ID NO:1 as competitor @ 50, 100 or 200 μM, pre-incubation 10 min, 4 μl of a stock solution 10-fold concentrated • ±LAT9991-PAL probes @ 1 μM, incubation 30 min at room temperature on a plate agitator (protected from light), 4 μl of a stock solution @10 μM
• Irradiation @ 365 nm 20 min (4° C., on a support containing ice) • Transfer 40 μl in a clean Eppendorf tube
• Reduction: DTT 10 mM, 30 min @ 56° C. • Alkylation: Iodoacétamide 30 mM, 45 min @ RT Click-iT AzideTamra of 60 μL samples
• Acetone Precipitation −20° C. ON • Dry pellet resuspended in 30 μL 1% SDS in 50 mM Tris-HCl pH 7.5 • Photolabeled LANCL1 was tagged with tetramethylrhodamine (TAMRA) azide @100 μM TAMRA azide by copper click chemistry using the Click-iT Protein Reaction Buffer Kit (ThermoFisher Scientific) for 30 minutes • Precipitation using the chloroform-methanol method, pellet was air-dried for 10 min at room temperature, resuspended in 30 μL SDS loading buffer (Bio Rad XT Sample Buffer containing 2.5% v/v 2-mercaptoethanol) and heated (60° C., 30 min)
• SDS-PAGE (4-15% Criterion™ TGX Stain-Free™ Protein Gel, Bio Rad) • Analyzed by in-gel fluorescence scanning using a ChemiDoc™ MP Imaging System (Bio Rad) with a green LED light as an excitation source and a BP600/20 nm emission filter

Chain of LANCL1 (Q9QX69 whole entry): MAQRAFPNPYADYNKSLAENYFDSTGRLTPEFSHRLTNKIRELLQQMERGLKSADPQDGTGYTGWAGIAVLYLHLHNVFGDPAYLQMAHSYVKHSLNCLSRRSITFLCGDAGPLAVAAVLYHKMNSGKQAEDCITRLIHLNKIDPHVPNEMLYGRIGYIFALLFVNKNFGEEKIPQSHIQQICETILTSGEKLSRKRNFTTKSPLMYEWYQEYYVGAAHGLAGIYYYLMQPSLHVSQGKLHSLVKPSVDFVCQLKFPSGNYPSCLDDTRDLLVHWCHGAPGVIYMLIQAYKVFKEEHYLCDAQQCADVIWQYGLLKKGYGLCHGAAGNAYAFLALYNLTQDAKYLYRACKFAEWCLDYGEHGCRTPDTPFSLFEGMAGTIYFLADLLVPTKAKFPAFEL

Regarding “LAT9991-PAL: cyclic peptide of SEQ ID NO:12 (LAT9991) conjugated to the PAL (Photo-Activated Labelling) grouping (CRSVEGSCG; disulfide 1-8 (inferred); also: PAL group on N-terminal Cys-Arg part)”, the “Subcellular location of the target stained by PAL probe” value in test [1] (high-powered imaging, neurons from neuropathic animals (FIG. 2)) is “expressed just inside the neuronal cell membrane, and with punctate staining in the cytoplasm”. Moreover, the “Localisation of PAL probe in DRG cell cultures” value in test [1] (neuropathic vs unaffected DRG, 1 hour incubation before UV irradiation) is “localised only in neurons from neuropathic DRG and not from unaffected DRG”. For the same substance, the “Detection of LANCL1 in eluates of probe pull-down (Western Blot)” value in test [2] (5 μM probe, rat spinal cord microsomal fraction) is reported as “could only be detected in the eluates of LAT9991-PAL samples as a specifically bound protein”. In addition, in test [3] (in-gel fluorescence after UV cross-linking), the “Binding of PAL probe to recombinant LANCL2” value was “binds”.

As to “YLRIVQCRSVEGSCGF [LAT8881, a cyclic peptide fragment of human growth hormone]”, in test [2] (50 μM competitor, 10-fold excess over LAT9991-PAL), the “LANCL1 level in LAT9991-PAL pull-down eluate in presence of excess competitor” value is listed as “reduced”. For the same substance, the “Inhibition of LAT7771-PAL binding to recombinant LANCL2 by excess competitor” value in test [3] (probe LAT7771-PAL (as in FIG. 10 legend), excess LAT8881) was “inhibited”. Besides, the “Inhibition of LAT9991-PAL binding to LANCL2 by excess competitor” value in test [3] (probe LAT9991-PAL, excess LAT8881) was “inhibited”.
